The values below come from the nanobody polyreactivity screen of Harvey et al. (2022).

This data set is described as follows: yeast display, Sf9 membrane polyspecificity reagent, FACS + sequencing; frameworks hold sequencing errors. Put shortly: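 After 36–48 hours of galactose induction, yeast (Saccharomyces cerevisiae BJ5465) displaying a synthetic nanobody library were stained at 4 °C for 1 hour with 10% biotinylated, detergent-solubilized Sf9 membrane reagent. Streptavidin microbeads enriched the stained cells before FACS sorting into low and high (top ~1%) gates on anti-HA and streptavidin fluorescence. Each clone's polyreactivity label reflects its gate of origin.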
“LVQLVESGGGLVQAGGSLRLSCAASGFTFPDYAMGWYRPAPGKERELVAAISSDGSTYYADSVKGRFTISRDNAKNTVYLQMNSLKPEDTAVYYCAAYVVWLYGYDYWGQGTQVTVSS”: the “polyreactivity (PSR sort gate)” value was “low polyreactivity”.

“QVQLVESGGGLVQAGGSLRLSCAASGITFFRYTMGWYRQAPGKEREFVAAINIRGTRTYYADSVKGRFTISRDNAKNTVYLQMNSLKPEDTAVYYCAAGYAYRYSGLSYDVDYWGQGTQVTVSS”: the “polyreactivity (PSR sort gate)” value is “high polyreactivity”.

Regarding “QVQLVESGGGLVQAGGSLRLSSAASGIFWNYAMGWYRQAPGKERELVAAISGSGGSTYYADSVKGRFTISRDNAKNTVYLQINSLKPEDTAVYYCAAEPGNHIWIYDYWGQGTQVTVSS”, the “polyreactivity (PSR sort gate)” value is given as “low polyreactivity”.

On to “QVQLVESGGGLVQAGGSLRLSCAASGSIFHGYTMGWYIQSPGKERELVAAISRRGDSTYYADSVKGRFTISRDNAKNTVYLQMNSLKPEDTAVYYCATVFYRTRYVPYGYWGQGTQVTVSS”, for which the “polyreactivity (PSR sort gate)” value is recorded as “low polyreactivity”. For “QVQLVESGGGLVQAGGSLRLSCAASGRTFASYAMGWYRQAPGKERELVAVISRGGSNTNYADSVTGRFTISRDNAKNTVYLQMNSLKPEDTAVYYCADLAFKRYNPGGYDYWGQGTQVTVSS”, the “polyreactivity (PSR sort gate)” value was “high polyreactivity”. Then “QVQLVESGGGLVQAGGSLRLSCAASGFTFRVYAMGWYRQAPGKERELVAAITRGGSTKYADSVKGRFTISRDNAKNTVYLQMNSLKPEDTAVYYCAARYNGKLNWGQGTQVSVSS”, with “high polyreactivity”; and “QVQLVESGGGIVQAGGSLRLSCAASGSTFYVNVMGRYRQAPGKERELVAGITIRDGATYYADSVKGRFTISRDNAKITVYLQMNSLNPEDTAVYYCARAGDGEYKRDYWGQGTQVTVSS”, with “low polyreactivity”. As to “QVQLVESGGGLVQAGGSLRLSCAASGSIFTPYAMGWYRQAPGKERELVAVISWRVDSTYYADSVKGRFTISRDNAKNTVYLQMNSLKPEDTAVYYCAAKSYLLAPFGSGNRWSRYDYWGQGTQVTVSS”, the “polyreactivity (PSR sort gate)” value is “high polyreactivity”. Then “QVQLVESAGGLVHARGSLRLSCAASGRIFERNAMGSYRQAPGKERELVARITSGGGTYYADSVKGRFTISRDNAKNTVYLQMNSLKPEDTAVYYCAVQYLYRKYRRYDYWGLGTQVTVSS”, with “high polyreactivity”; and “QVQLVESRGGLVQAGVSLRLSCASSGRIVGWYAMGWYIQAPGKERELVAVITWSDGRTYYADSVKGRFTISRDNAKNTVYLQMNSLKPEDTAVFYCAAADWITEYDYWGQGTQVTVSS”, with “low polyreactivity”; and “QVQLVESGGRLVQAGGSLRLSCAASGRTFNRNAMVWYRQAPGKERELVAAISRGGGGTYYADSVMGRFTISRDNAKNTVYLQMNSLKPEDTAVYYCNAAPYYVMYLLWSSNTYDYWGQGTQVTVSS”, with “high polyreactivity”. Turning to “QVQLVESGGGLVQAGGSLRLSCAASGRTFPSYAMGWYRQAPGTERELVAAITVSGGNTYYAHSVKGRFTISRDNAKNTVYLQMNSLKPEDTAVYYCNTPSYVSWYVHYYYWGQGTQVTVSS”, the “polyreactivity (PSR sort gate)” value is “low polyreactivity”.

For “QVQLVESGGGLVQAGGSLRLSCAASGYTFSDNAMGWYRQAPGKERELVAAITSGVSTYYADSVKGRFTISRDNAKNTVYLQMNSLKPEDTAVYYCAKDVAVYADLYQGAPYGYWGQGTQVTVSS”, the “polyreactivity (PSR sort gate)” value is on record as “low polyreactivity”.

As for “QVQLVESGGGLVQAGGSLRLSCAASGRTLYYYTMGWYRPAPGKERELVAAIRWSTGSTYYADSVKGRFTISRDNAKNTVYLQMNSLKPEDTAVYYCNAYRYQWAQSTEYDYWGQGTQVTVSS”, the “polyreactivity (PSR sort gate)” value is “high polyreactivity”. As to “QVQLVESGGCLVQAGGSLRLSCAASGRIFRDKAMGWYRQAPGKEREFVARITISTGTTYYADSVKGRFTISRDNAKNTGYLQKNSLKPADTAVYYCAALYTDSYLTSPVSYRYDYWGQGTQVSVSS”, the “polyreactivity (PSR sort gate)” value is given as “low polyreactivity”. To “QVQLVESGGGLVQAGGSLRLSCAASGSTLPAYTMAWYRQAPGKERELVAAISYRGGSTYYADSVKGRFTISRDNAKNTVYLQMNSLKPEDTAVYYCAAVYSVAYASTHYRIYDYWGQGTQVTVSS” belongs “high polyreactivity”; to “QGQLVESGGGLVQAGGSLRLSCAAYGSTFYLYPMGRYRQAPGKERELVASISLSGRSTYYADSVKGRFTISRDNAKNTVYLQMNRLKQEDTAVYYCAARRFAYYFQYLGGGYWGQGTQVTVSS”, “high polyreactivity”; to “QVQLVESGGGLVQAGGSLRLSCAASGYTFYRYTMGWYRQAPGKERELVAAINSGGSTNYADSLKGRFTISRDNAKYTVYLQMNSLKPEDTAVYYCARRYQTWPRWYDYWGQGTQVTVSS”, “high polyreactivity”. For the sequence “QVQLVESGGGLVQAGGSLRLSCAASGLTIRYYAMGWYRKAPGKERELVAAISSSGGRTYYADSVKGRFTISRDNAKNTVYLQMNSLKPEDTAVYYCSRDYGYGLMGYWGQGTQVTVSS”, the “polyreactivity (PSR sort gate)” value is reported as “high polyreactivity”.

With “QVKLVESGGCLVQAGCSLSLSCAASGRTFVTYAMGWYRQAPGKEREFVAAISWSGVSTYYADSVKGRFTISRDNAKNTVYLQMNSLKPEDTAVYYCAAKRVRALYGGSEGGYWGQGTQVTVSS”, the “polyreactivity (PSR sort gate)” value is reported as “low polyreactivity”. With “QVQLVESGGGLVQAGGSLRLSCAASGSIFVYYAMGWYRPAPGKERELVASISRGGTSTYYADSVKGRFTISRDNAKNTVYFQMNSLKPEDTAVYYCAAQPYRTGTYDYWGQGTQVTVSS”, the “polyreactivity (PSR sort gate)” value is reported as “low polyreactivity”.

Turning to “QVQLVESGGGLVLAGGSLSLSCAASGSIFNWYAMGWYRKAHGKERELVAAISWRGGSTYYADSVKGRFTISRDNAINSVYFQMNSLKPEDTAVYYCASDGGGDHMDYWGQGTQVSVSS”, the “polyreactivity (PSR sort gate)” value was “high polyreactivity”. As to “QVQLVESGGGLVQAGGSLRLSCAASGSIFYFNAMGWYRQAPGKERELVAAINYSGGSTYYADSVKGRFTISRDNAKNTVYLQMNSLKPEDTAVYYCAAVTYFGWYPYRMEYWGQGTQVTVSS”, the “polyreactivity (PSR sort gate)” value is reported as “high polyreactivity”.

Consider “QVQLVESGGGLVQAGGSLRLSCAASGSIFTLYAMGRYRQAPGKERELVAAITWSGGSSYYADSVKGRFTISRDNAKNTVYLQMNSLKPEDTAVYYCAKDYLAGGPWEGLVEREYDYWGQGTQVTVSS”, for which the “polyreactivity (PSR sort gate)” value is “low polyreactivity”. For “QVQLVESGGGLVQAGGSLRLSCAASGSIFYPNAMGWYRQAPGKERELVAVITGGATTYYADSVKGRFTISRDNAKNTVYLQMNSLKPEDTAVYYCAADSAENVYRGYYWGQGTQVTVSS”, the “polyreactivity (PSR sort gate)” value is listed as “low polyreactivity”. As for “QVQLVESGGGLVQAGGSLRLSCAASGSKFKRNAMVWYRQAPGKERELVASISSGGSTHYADSVNGRFTISRDNSKNTVYLEMNSLKPEDTAVYYCAATSIRWSVGSFRRDYWGQGTQVTVSS”, the “polyreactivity (PSR sort gate)” value is reported as “low polyreactivity”. In the case of “QVQLVESGGGLVQAGGSLRLSCAASGRTSYYNTMGWYRPAPGKERELVAASTGRGDSTYYADSVKGRFTISRDNAKKTGYLQMNSLKPEDTAVYYCAADELHLLYRVSKFVDYNHWGQGTQVTVSS”, the “polyreactivity (PSR sort gate)” value was “low polyreactivity”. With “QVQPQERGGGPVQACGSLRLSCAARGNILDADILGWYRLVPGKEGELVASITDGGSTNYAESVKGRFTLSRDNAINTVYHHMNSLKPEDTAVYYCAANARSHAEHDYWGQGTQVTVSS”, the “polyreactivity (PSR sort gate)” value is on record as “low polyreactivity”. Take “QVQLVESGGGLVQAGGSLRLSCAASGLIFSGYAMGWYRQAPGKERELVAAISRGGGRTSYADSVKGRFTISRDNAKNTVYLQMNSLKPEDTAVYYCAKDPRYLRYDHWGQGTQVTVSS”: the “polyreactivity (PSR sort gate)” value is on record as “high polyreactivity”.

With “QVQLVESGGGLVQAGGSLRLSCAASGRTFQYYAMGWYRQAPGKERELVAAISGIGTSTSYADSVKGRFTISRDNAKNTVYLQMNSLKPEDTAVYYCAARLLVPCSPWYTNYYWGQGTQVTVSS”, the “polyreactivity (PSR sort gate)” value is given as “low polyreactivity”. As to “QVQLVESGGGLVQAGGSLRISCAASGRIFEVYDMGWYRQAPGKERELVAAISESDDNTYYADSVKGRFTISRDNAKNTVYLQMNSLKPEDTEVYYCNADVPGDTGWWGFDYWGQGTQVTVSS”, the “polyreactivity (PSR sort gate)” value is given as “low polyreactivity”. With “QLQLVESGGGLVQAGGSLRLSCAASGSTFSVYAMGWYRPAPGKERELVAAISSGGNTKYADSVKGRFTISRDNAKNTVYLQMNSLKPEDTAVYYCNADSQRPAYWDGYWGQGTQVTVSS”, the “polyreactivity (PSR sort gate)” value is recorded as “low polyreactivity”.

For “QVQLVESGGGLVQAGGSLRLSCAASGNIFGKYAMGWYRQAPGKERELVAAISSGGRTNYADSVKGRFTISRDNAKNTVYLQMNSLKPEDTAVYYCAKRYFRTKGYYYWGQGTQVTVSS”, the “polyreactivity (PSR sort gate)” value is reported as “high polyreactivity”. As for “QVQLVESGGGLVQAGRSLRLSCAASGRIIYGYPMGWYRQAPGIERELVAAITATYYADSVKGRFTISRDNAKNTVYLQMNSLKPEDTAVYYCNAYLSPKQPLSPPDPTFEGGYWGQGTQVTVST”, the “polyreactivity (PSR sort gate)” value is “low polyreactivity”.

On to “QVQLVESGGGLVQAGGSLRLSCAASGSIFSGYAMGWYRQAPGKERELVAAISTSSVRTYYADSVKGRFTISRDNAKNTVYLQMNSLKPEDTAVYYCAARDGGSYTPMYYWGHGTQVTVSS”, for which the “polyreactivity (PSR sort gate)” value is on record as “high polyreactivity”. Turning to “QVQLVESGGGLVQAGGSLRLSCAASGFIFDVYAMGWYRQAPGTERELVAAITSGDGTNYADSVKGRFTISRDNAKNTVYLQMNSLKPEETAVYYCAADDGVTYRGIIFSYWGQGTQVTVSS”, the “polyreactivity (PSR sort gate)” value is on record as “low polyreactivity”. To “QVQLVESGGGLVQAGGSLRLSCPASGRTFGIYAMGWYRQAHGKERELVAAITWSGDSTYYADSVKGRFTISRDNAKNTVYLQMNSLKPEDTAVYYCAADYVGVTSVRYDYWGQGTQVTVSS” belongs “low polyreactivity”; to “QVQLVESGGGLVQAGGSLRLSCAASGLIFSRYAMGWYRQAPGKERELVAAISSSGGTTYYADSVKGRFTISRDNAKNTVYLQMNSLKPEDTAVYYCAAGVAWRFYSWGQGTQVTVSS”, “high polyreactivity”. Take “QVQLEESGGGLVQAGGSLRLSCAASGRIFYHYAMGWYRTAPGKERELVAAITSSGAGTYYADSVKGRFTISRDNAKNTVYLQMNSLKPEDTAVYYCAADASRRYRYWYDYWGQGTQVTVSS”: the “polyreactivity (PSR sort gate)” value is “high polyreactivity”. “QVQLVESGGGLVQAGGSLRLSCAASGITFRYYAMGWYRQAPGKERELVAAITRGGRTNYADSVKGRFTISRDNAKNTVYLQMNSLKPEDAAVYYCATGRDSNFGNSYYYWGQGTQVTVSS”: the “polyreactivity (PSR sort gate)” value is given as “high polyreactivity”.
